Here are results for one protein from patent US20250360126.

For this series, the system named is T1, NPM2 (embryonic NPM1 paralog).
T1 sequence (Q86SE8 1-214, species assumed, looked up): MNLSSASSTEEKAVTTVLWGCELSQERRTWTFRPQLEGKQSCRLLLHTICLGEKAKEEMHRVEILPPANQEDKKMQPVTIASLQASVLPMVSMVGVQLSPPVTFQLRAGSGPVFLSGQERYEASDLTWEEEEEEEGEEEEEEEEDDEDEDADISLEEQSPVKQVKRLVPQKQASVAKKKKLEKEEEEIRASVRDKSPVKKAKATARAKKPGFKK

B1: CCP5 (cytosolic carboxypeptidase-like 5) (enzyme, UniProt Q8NDL9 1-886, looked up, species assumed)
Cytosolic carboxypeptidase-like protein 5: MELRCGGLLFSSRFDSGNLAHVEKVESLSSDGEGVGGGASALTSGIASSPDYEFNVWTRPDCAETEFENGNRSWFYFSVRGGMPGKLIKINIMNMNKQSKLYSQGMAPFVRTLPTRPRWERIRDRPTFEMTETQFVLSFVHRFVEGRGATTFFAFCYPFSYSDCQELLNQLDQRFPENHPTHSSPLDTIYYHRELLCYSLDGLRVDLLTITSCHGLREDREPRLEQLFPDTSTPRPFRFAGKRIFFLSSRVHPGETPSSFVFNGFLDFILRPDDPRAQTLRRLFVFKLIPMLNPDGVVRGHYRTDSRGVNLNRQYLKPDAVLHPAIYGAKAVLLYHHVHSRLNSQSSSEHQPSSCLPPDAPVSDLEKANNLQNEAQCGHSADRHNAEAWKQTEPAEQKLNSVWIMPQQSAGLEESAPDTIPPKESGVAYYVDLHGHASKRGCFMYGNSFSDESTQVENMLYPKLISLNSAHFDFQGCNFSEKNMYARDRRDGQSKEGSGRVAIYKASGIIHSYTLECNYNTGRSVNSIPAACHDNGRASPPPPPAFPSRYTVELFEQVGRAMAIAALDMAECNPWPRIVLSEHSSLTNLRAWMLKHVRNSRGLSSTLNVGVNKKRGLRTPPKSHNGLPVSCSENTLSRARSFSTGTSAGGSSSSQQNSPQMKNSPSFPFHGSRPAGLPGLGSSTQKVTHRVLGPVREPRSQDRRRQQQPLNHRPAGSLAPSPAPTSSGPASSHKLGSCLLPDSFNIPGSSCSLLSSGDKPEAVMVIGKGLLGTGARMPCIKTRLQARPRLGRGSPPTRRGMKGSSGPTSPTPRTRESSELELGSCSATPGLPQARPPRPRSAPAFSPISCSLSDSPSWNCYSRGPLGQPEVCFVPKSPPLTVSPRV
Consider B1, for which the “deglutamylation of substrate, blot (FIG. 2C)” value is recorded as “the CCP5 enzyme deglutamylates NPM2”.
